# Target: HLA-A*02:01 (Homo sapiens, UniProt P04439, D140Y/D185E/D98H/E176V/E277Q/G131W/G231S/I119V/I121R/I166T/I218V/L300P/L318F/N151K/N90K/P208A/P217A/Q86G/Q94H/R138H/R169H/T345S)
# Assay: MHC binding assay: UV-ligand exchange with beta2m ELISA (peptide exchange yield)
# Conditions: binding to HLA-A*02:01
# Method in brief: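 Peptide-MHC complexes formed by UV-ligand exchange, a UV-cleavable peptide being replaced by the candidate peptide. Exchange products diluted 100-fold, captured on streptavidin-coated plates for 1h at 37° C, then detected with 2 ug/ml HRP anti-β2m (1h, 37° C) and TMB, absorbance 450 nm; value is exchange yield.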
row,Substance,"Peptide exchange (MHC class I binding score, peptide exchange yield)"
1,275 (YLVYILNEL; listed as Homo sapiens) [compound 275],“++” (≥20% = ++)
2,191 (LLQEGQALEYV; listed as Homo sapiens) [compound 191],“++” (≥20% = ++)
3,50 (SLSELEALM; listed as Homo sapiens) [compound 50],“+++” (≥50 = +++)
4,219 (KLSDIGITV; listed as Homo sapiens) [compound 219],“+++” (≥50 = +++)
5,86 (NLIGKIENV; listed as Homo sapiens) [compound 86],“+++” (≥50 = +++)
6,199 (ALQDVPLSSV; listed as Homo sapiens) [compound 199],“+++” (≥50 = +++)
7,24 (SLSDGLEEV; listed as Homo sapiens) [compound 24],“++” (≥20% = ++)
8,197 (ALGPEGGRV; listed as Homo sapiens) [compound 197],“++” (≥20% = ++)
9,100 (YLLSTNAQL; listed as Homo sapiens) [compound 100],“++++” (≥75% = ++++)
10,56 (KLYEGIPVLL; listed as Homo sapiens) [compound 56],“++++” (≥75% = ++++)
11,245 (SMIDDLLGV; listed as Homo sapiens) [compound 245],“+++” (≥50 = +++)
12,202 (ALLDQQGSRWTL; listed as Homo sapiens) [compound 202],“+++” (≥50 = +++)
13,175 (YLFENISQL; listed as Homo sapiens) [compound 175],“+++” (≥50 = +++)
14,185 (FLIDDKGYTL; listed as Homo sapiens) [compound 185],“++” (≥20% = ++)
15,17 (GLLPGDRLVSV; listed as Homo sapiens) [compound 17],“+++” (≥50 = +++)
16,138 (YQYPRAILSV; listed as Homo sapiens) [compound 138],“+++” (≥50 = +++)
17,176 (YLMEGSYNKVFL; listed as Homo sapiens) [compound 176],“++” (≥20% = ++)

row,Substance,"Peptide exchange (MHC class I binding score, peptide exchange yield)"
1,220 (LLQKFVPEI; listed as Homo sapiens) [compound 220],“++” (≥20% = ++)
2,109 (IILSILEQA; listed as Homo sapiens) [compound 109],“++++” (≥75% = ++++)
3,8 (FTLGNVVGMYL; listed as Homo sapiens) [compound 8],“++++” (≥75% = ++++)
4,326 (FLPEALDFV; listed as Homo sapiens) [compound 326],“+++” (≥50 = +++)
5,230 (ILVDWLVEV; listed as Homo sapiens) [compound 230],“+” (≥10% = +)
6,184 (YLMDINGKMWL; listed as Homo sapiens) [compound 184],“+++” (≥50 = +++)
7,15 (VLLTFKIFL; listed as Homo sapiens) [compound 15],“++” (≥20% = ++)
8,14 (AAYGGLNEKSFV; listed as Homo sapiens) [compound 14],“+++” (≥50 = +++)
9,13 (YLMDESLNL; listed as Homo sapiens) [compound 13],“+++” (≥50 = +++)
10,30 (LILDWVPYI; listed as Homo sapiens) [compound 30],“+++” (≥50 = +++)
11,87 (ALPEAPAPLLPHIT; listed as Homo sapiens) [compound 87],“++” (≥20% = ++)
12,305 (SIANFSEFYV; listed as Homo sapiens) [compound 305],“++++” (≥75% = ++++)
13,120 (ALLGIPLTLV; listed as Homo sapiens) [compound 120],“+++” (≥50 = +++)
14,301 (FLVEDLVDSL; listed as Homo sapiens) [compound 301],“+++” (≥50 = +++)
15,57 (TLAELQPPVQL; listed as Homo sapiens) [compound 57],“+++” (≥50 = +++)
16,115 (AIAGAGILYGV; listed as Homo sapiens) [compound 115],“++” (≥20% = ++)
17,61 (FLQGYQLHL; listed as Homo sapiens) [compound 61],“++++” (≥75% = ++++)

# More lines, now with the values ahead:
row,"Peptide exchange (MHC class I binding score, peptide exchange yield)",Substance
1,“++++” (≥75% = ++++),552 (GLLDLPFRVGV; listed as Homo sapiens) [compound 552]
2,“++” (≥20% = ++),579 (NLMEMVAQL; listed as Homo sapiens) [compound 579]
3,“++” (≥20% = ++),494 (ALQPEPIKV; listed as Homo sapiens) [compound 494]
4,“++” (≥20% = ++),431 (SLVNVVPKL; listed as Homo sapiens) [compound 431]
5,“+++” (≥50 = +++),572 (ALADLIEKELSV; listed as Homo sapiens) [compound 572]
6,“+++” (≥50 = +++),497 (GLLEKLTAI; listed as Homo sapiens) [compound 497]
7,“+++” (≥50 = +++),328 (ALNDQVFEI; listed as Homo sapiens) [compound 328]
8,“+++” (≥50 = +++),475 (LLLNEEALAQI; listed as Homo sapiens) [compound 475]
9,“++” (≥20% = ++),412 (YLDDLNEGVYI; listed as Homo sapiens) [compound 412]
10,“+++” (≥50 = +++),498 (KLWTGGLDNTV; listed as Homo sapiens) [compound 498]
11,“+++” (≥50 = +++),465 (QLCDLNAEL; listed as Homo sapiens) [compound 465]
12,“++” (≥20% = ++),385 (SLLEQGLVEA; listed as Homo sapiens) [compound 385]
13,“++” (≥20% = ++),372 (TMLLNIPLV; listed as Homo sapiens) [compound 372]
14,“++” (≥20% = ++),455 (SLLKEPQKVQL; listed as Homo sapiens) [compound 455]
15,“+++” (≥50 = +++),583 (ILANDGVLLAA; listed as Homo sapiens) [compound 583]
16,“+++” (≥50 = +++),444 (GLLRDEALAEV; listed as Homo sapiens) [compound 444]
17,“++” (≥20% = ++),453 (KLLEATSAV; listed as Homo sapiens) [compound 453]

row,"Peptide exchange (MHC class I binding score, peptide exchange yield)",Substance
1,“+++” (≥50 = +++),452 (ILLEHGADPNL; listed as Homo sapiens) [compound 452]
2,“+++” (≥50 = +++),561 (YLQLTQSEL; listed as Homo sapiens) [compound 561]
3,“++” (≥20% = ++),440 (ALADGVTMQV; listed as Homo sapiens) [compound 440]
4,“++” (≥20% = ++),523 (YQIPRTFTL; listed as Homo sapiens) [compound 523]
5,“++++” (≥75% = ++++),387 (ALFQATAEV; listed as Homo sapiens) [compound 387]
6,“+++” (≥50 = +++),388 (SLTIDGIRYV; listed as Homo sapiens) [compound 388]
7,“+++” (≥50 = +++),604 (SILDRDDIFV; listed as Homo sapiens) [compound 604]
8,“++” (≥20% = ++),432 (TLIEESAKV; listed as Homo sapiens) [compound 432]
9,“++” (≥20% = ++),458 (SLIDKLYNI; listed as Homo sapiens) [compound 458]
10,“+++” (≥50 = +++),357 (SMHDLVLQV; listed as Homo sapiens) [compound 357]
11,“+++” (≥50 = +++),519 (GLLHLTLLL; listed as Homo sapiens) [compound 519]
12,“+++” (≥50 = +++),336 (ILLTAIVQV; listed as Homo sapiens) [compound 336]
13,“+++” (≥50 = +++),545 (LLADLLHNV; listed as Homo sapiens) [compound 545]
14,“+++” (≥50 = +++),587 (VMNDRLYAI; listed as Homo sapiens) [compound 587]
15,“+++” (≥50 = +++),589 (KLYPQLPAEI; listed as Homo sapiens) [compound 589]
16,“+++” (≥50 = +++),577 (VMFEDGVLMRL; listed as Homo sapiens) [compound 577]

# Source: US10464978B2, “Peptides and combination of peptides for use in immunotherapy against ovarian cancer and other cancers” (immatics biotechnologies GmbH, priority 2015, dated 2019)
